The values that follow come from IntAct's records for PubMed 23322602.

For this assay, the target named is adt2_human SLC25A5 (UniProt P05141).
Sequence of adt2_human SLC25A5 (P05141 whole entry): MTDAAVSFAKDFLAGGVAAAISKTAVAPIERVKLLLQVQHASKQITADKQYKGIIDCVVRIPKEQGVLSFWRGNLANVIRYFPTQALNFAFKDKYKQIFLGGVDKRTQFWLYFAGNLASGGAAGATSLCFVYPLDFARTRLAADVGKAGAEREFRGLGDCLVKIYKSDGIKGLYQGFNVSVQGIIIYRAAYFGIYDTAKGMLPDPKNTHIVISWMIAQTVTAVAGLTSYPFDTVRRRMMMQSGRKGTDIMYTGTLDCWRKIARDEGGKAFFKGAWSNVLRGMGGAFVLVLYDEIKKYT

Sequence of Cytoplasmic protein NCK2 (Homo sapiens), O43639 R311K (O43639 whole entry R311K): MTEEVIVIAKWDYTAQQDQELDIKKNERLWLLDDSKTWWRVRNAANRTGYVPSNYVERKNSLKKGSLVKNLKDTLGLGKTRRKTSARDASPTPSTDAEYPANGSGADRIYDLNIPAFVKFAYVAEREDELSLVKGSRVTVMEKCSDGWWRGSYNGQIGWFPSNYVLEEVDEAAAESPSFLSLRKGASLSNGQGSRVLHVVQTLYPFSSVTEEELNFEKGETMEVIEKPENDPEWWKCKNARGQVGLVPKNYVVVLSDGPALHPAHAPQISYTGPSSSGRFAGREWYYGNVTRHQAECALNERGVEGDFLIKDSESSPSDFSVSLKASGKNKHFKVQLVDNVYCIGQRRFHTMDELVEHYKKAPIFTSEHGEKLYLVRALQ

For “Cytoplasmic protein NCK2 (Homo sapiens), O43639 R311K”, the “effect of a mutation on the interaction” value is reported as “disrupting interaction”.
